This data set deals with the molecule itself.

IRIDIRIDIRG [Peptide IRIDIRIDIRG (SID)]: the binding result was “binds”.

For the origin of these results see paper doi:10.1101/2024.11.05.622117 (bioRxiv, 2024).
